This passage reports C50 results from patent EP1618130B1.

The assay deals with HLA-A2 (human).

Take “HLA-A2 high affinity positive control epitope from HIV-1 pol476-484 ([…]) (peptide)”: the C50 was 0.2 µM.
